# According to paper PMC8809517, “Cofactor-independent RNA editing by a synthetic S-type PPR protein”:
# T1: GFP-9S library array, motif 4 ND D124W (synthetic construct, D124W)
# T1 chain: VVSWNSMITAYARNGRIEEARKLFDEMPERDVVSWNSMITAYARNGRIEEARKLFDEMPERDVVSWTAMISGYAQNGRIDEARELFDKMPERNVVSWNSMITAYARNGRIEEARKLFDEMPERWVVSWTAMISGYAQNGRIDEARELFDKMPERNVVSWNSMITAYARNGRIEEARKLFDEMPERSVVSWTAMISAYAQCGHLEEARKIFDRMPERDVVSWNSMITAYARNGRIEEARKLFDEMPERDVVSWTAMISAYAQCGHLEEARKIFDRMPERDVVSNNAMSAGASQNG
# T2: GFP-9S library array, motif 4 ND D124E (synthetic construct, D124E)
# T2 chain: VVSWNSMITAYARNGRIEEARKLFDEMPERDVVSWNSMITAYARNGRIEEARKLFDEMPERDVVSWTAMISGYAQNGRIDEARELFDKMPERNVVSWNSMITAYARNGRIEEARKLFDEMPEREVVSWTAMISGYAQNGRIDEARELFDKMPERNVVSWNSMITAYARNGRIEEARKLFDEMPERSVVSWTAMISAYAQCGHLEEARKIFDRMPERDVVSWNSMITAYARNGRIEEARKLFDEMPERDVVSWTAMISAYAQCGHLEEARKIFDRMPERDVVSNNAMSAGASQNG
# T3: GFP-9S library array, motif 4 ND N98T;D124Y (synthetic construct, N98T;D124Y)
# T3 chain: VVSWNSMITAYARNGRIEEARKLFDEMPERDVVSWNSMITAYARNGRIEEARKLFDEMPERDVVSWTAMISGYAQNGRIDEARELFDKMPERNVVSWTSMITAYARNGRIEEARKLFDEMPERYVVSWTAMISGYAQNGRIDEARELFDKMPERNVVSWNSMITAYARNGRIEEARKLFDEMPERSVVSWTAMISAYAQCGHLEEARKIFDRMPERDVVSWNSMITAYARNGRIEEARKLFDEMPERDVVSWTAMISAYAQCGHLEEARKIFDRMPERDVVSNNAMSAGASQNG
# T4: GFP-9S library array, motif 4 ND N98W;D124T (synthetic construct, N98W;D124T)
# T4 chain: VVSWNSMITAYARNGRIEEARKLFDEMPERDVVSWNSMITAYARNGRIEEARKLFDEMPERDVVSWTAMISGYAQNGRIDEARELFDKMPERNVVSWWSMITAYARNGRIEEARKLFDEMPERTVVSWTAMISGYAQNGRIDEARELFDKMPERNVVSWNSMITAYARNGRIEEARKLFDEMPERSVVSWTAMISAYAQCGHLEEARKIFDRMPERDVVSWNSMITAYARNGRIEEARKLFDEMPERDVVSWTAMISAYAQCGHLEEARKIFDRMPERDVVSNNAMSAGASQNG
# T5: GFP-9S library array, motif 4 ND N98D;D124P (synthetic construct, N98D;D124P)
# T5 chain: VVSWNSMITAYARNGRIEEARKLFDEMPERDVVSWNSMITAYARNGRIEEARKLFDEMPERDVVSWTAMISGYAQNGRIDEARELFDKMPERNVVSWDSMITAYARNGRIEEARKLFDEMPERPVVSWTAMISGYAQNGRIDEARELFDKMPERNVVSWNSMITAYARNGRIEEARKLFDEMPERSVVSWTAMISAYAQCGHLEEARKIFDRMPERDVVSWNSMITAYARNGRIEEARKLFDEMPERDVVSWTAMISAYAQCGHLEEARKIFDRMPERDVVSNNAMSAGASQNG
# What was measured:
# Assay in all cases: high-throughput RNA pulldown from lysate on Ni-NTA beads; HRP: 50 mM Tris pH 8, 150 mM NaCl, 1 mM beta-mercaptoethanol, 50 ug/ml BSA, 3 ug/ml yeast RNA, 0.5% heparin; ITC and FP: Tris pH 8, 200 mM KCl, 5% glycerol; MST: 50 mM Tris pH 8, 200 mM NaCl, 1 mM DTT, BSA, heparin, 0.05% Tween 20
# Conditions in all cases: tags: N-terminal His-eGFP
# [1] = target: T1, GFP-9S library array, motif 4 ND D124W
# [2] = target: T2, GFP-9S library array, motif 4 ND D124E
# [3] = target: T3, GFP-9S library array, motif 4 ND …
# [4] = target: T4, GFP-9S library array, motif 4 ND …
# [5] = target: T5, GFP-9S library array, motif 4 ND …
binder,measurement,setting,value
AUUAUACGUGA (ssRNA) [IR-rpoA-U],Kd,[1]; label: 5' IRDye 800CW,210 nM
same,Kd,[2]; label: 5' IRDye 800CW,3.54 nM
same,Kd,[3]; label: 5' IRDye 800CW,147 nM
same,Kd,[4]; label: 5' IRDye 800CW,59.1 nM
same,Kd,[5]; label: 5' IRDye 800CW,501 nM
AUUACACGUGA (ssRNA) [Cy5-rpoA],Kd,[1]; label: 5' Cy5,78.7 nM
same,Kd,[2]; label: 5' Cy5,10.5 nM
same,Kd,[3]; label: 5' Cy5,145 nM
same,Kd,[4]; label: 5' Cy5,38.5 nM
same,Kd,[5]; label: 5' Cy5,202 nM
AUUAAACGUGA (ssRNA) [IR-rpoA-A],Kd,[1]; label: 5' IRDye 800CW,164 nM
same,Kd,[2]; label: 5' IRDye 800CW,139 nM
same,Kd,[3]; label: 5' IRDye 800CW,90.9 nM
same,Kd,[4]; label: 5' IRDye 800CW,76.1 nM
same,Kd,[5]; label: 5' IRDye 800CW,341 nM
AUUAGACGUGA (ssRNA) [Cy5-rpoA-G],Kd,[1]; label: 5' Cy5,89.4 nM
same,Kd,[2]; label: 5' Cy5,276 nM
same,Kd,[3]; label: 5' Cy5,105 nM
same,Kd,[4]; label: 5' Cy5,50.4 nM
same,Kd,[5]; label: 5' Cy5,157 nM
